Measurements from the supplement of paper PMC11246515.
± gives the standard deviation of the averaged measurements.

Assay: total protein half-life in vivo (active degradation + dilution); higher = more stable protein
[1] = E. coli NCM3722 delta-clpP delta-lon delta-hslV, growth: N-lim chemostat, doubling time 6 h
[2] = E. coli NCM3722 delta-clpP, growth: N-lim chemostat, doubling time 6 h
[3] = E. coli NCM3722 delta-hslV, growth: N-lim chemostat, doubling time 6 h
[4] = E. coli NCM3722 delta-lon, growth: N-lim chemostat, doubling time 6 h
[5] = E. coli NCM3722 delta-smpB, growth: N-lim chemostat, doubling time 6 h
[6] = wild type E. coli NCM3722, growth: C-lim chemostat, doubling time 3 h
[7] = wild type E. coli NCM3722, growth: C-lim chemostat, doubling time 6 h
[8] = wild type E. coli NCM3722, growth: C-lim chemostat, doubling time 12 h
[9] = wild type E. coli NCM3722, growth: N-lim chemostat, doubling time 6 h
[10] = wild type E. coli NCM3722, growth: N-lim chemostat, doubling time 12 h
[11] = wild type E. coli NCM3722, growth: P-lim chemostat, doubling time 6 h
[12] = wild type E. coli NCM3722, growth: P-lim chemostat, doubling time 12 h

Row | Sequence | total protein half-life in vivo [1] | total protein half-life in vivo [2] | total protein half-life in vivo [3] | total protein half-life in vivo [4] | total protein half-life in vivo [5] | total protein half-life in vivo [6] | total protein half-life in vivo [7] | total protein half-life in vivo [8] | total protein half-life in vivo [9] | total protein half-life in vivo [10] | total protein half-life in vivo [11] | total protein half-life in vivo [12]
1 | MEKTYNPQDIEQPLYEHWEKQGYFKPNGDESQESFCIMIPPPNVTGSLHMGHAFQQTIMDTMIRYQRMQGKNTLWQVGTDHAGIATQMVVERKIAAEEGKTRHDYGREAFIDKIWEWKAESGGTITRQMRRLGNSVDWERERFTMDEGLSNAVKEVFVRLYKEDLIYRGKRLVNWDPKLRTAISDLEVENRESKGSMWHIRYPLADGAKTADGKDYLVVATTRPETLLGDTGVAVNPEDPRYKDLIGKYVILPLVNRRIPIVGDEHADMEKGTGCVKITPAHDFNDYEVGKRHALPMINILTFDGDIRESAQVFDTKGNESDVYSSEIPAEFQKLERFAARKAVVAAVDALGLLEEIKPHDLTVPYGDRGGVVIEPMLTDQWYVRADVLAKPAVEAVENGDIQFVPKQYENMYFSWMRDIQDWCISRQLWWGHRIPAWYDEAGNVYVGRNEDEVRKENNLGADVVLRQDEDVLDTWFSSALWTFSTLGWPENTDALRQFHPTSVMVSGFDIIFFWIARMIMMTMHFIKDENGKPQVPFHTVYMTGLIRDDEGQKMSKSKGNVIDPLDMVDGISLPELLEKRTGNMMQPQLADKIRKRTEKQFPNGIEPHGTDALRFTLAALASTGRDINWDMKRLEGYRNFCNKLWNASRFVLMNTEGQDCGFNGGEMTLSLADRWILAEFNQTIKAYREALDSFRFDIAAGILYEFTWNQFCDWYLELTKPVMNGGTEAELRGTRHTLVTVLEGLLRLAHPIIPFITETIWQRVKVLCGITADTIMLQPFPQYDASQVDEAALADTEWLKQAIVAVRNIRAEMNIAPGKPLELLLRGCSADAERRVNENRGFLQTLARLESITVLPADDKGPVSVTKIIDGAELLIPMAGLINKEDELARLAKEVAKIEGEISRIENKLANEGFVARAPEAVIAKEREKLEGYAEAKAKLIEQQAVIAAL | 5.35 ± 0.76 h | 5.48 ± 1.1 h | 4.68 ± 0.11 h | 5.17 ± 0.062 h | 4.417 ± 0.013 h | 3 ± 0.27 h | 5.796 ± 0.013 h | 10.5 ± 0.32 h | 4.721 ± 0.046 h | 7.86 ± 0.2 h | 5.92 ± 0.23 h | 10.7 ± 0.61 h
2 | MELATTQSVLMQIQPTIQRFARMLASVLQLEVEIVDENLCRVAGTGAYGKFLGRQLSGNSRLLRHVLETKTEKVVTQSRFDPLCEGCDSKENCREKAFLGTPVILQDRCVGVISLIAVTHEQQEHISDNLREFSDYVRHISTIFVSKLLEDQGPGDNISKIFATMIDNMDQGVLVVDDENRVQFVNQTALKTLGVVQNNIIGKPIRFRPLTFESNFTHGHMQHIVSWDDKSELIIGQLHNIQGRQLFLMAFHQSHTSFSVANAPDEPHIEQLVGECRVMRQLKRLISRIAPSPSSVMVVGESGTGKEVVARAIHKLSGRRNKPFIAINCAAIPEQLLESELFGYVKGAFTGASANGKTGLIQAANTGTLFLDEIGDMPLMLQAKLLRAIEAREILPIGASSPIQVDIRIISATNQNLAQFIAEGKFREDLFYRLNVIPITLPPLRERQEDIELLVHYFLHLHTRRLGSVYPGIAPDVVEILRKHRWPGNLRELSNLMEYLVNVVPSGEVIDSTLLPPNLLNNGTTEQSDVTEVSEAHLSLDDAGGTALEEMEKQMIREALSRHNSKKQVADELGIGIATLYRKIKKYELLNT | 4.91 ± 0.062 h |  |  |  |  | 1.46 ± 0.072 h | 2.41 ± 0.17 h | 2.87 ± 0.29 h |  | 1.52 h |  | 2.56 h
3 | MELIEKHVSFGGWQNMYRHYSQSLKCEMNVGVYLPPKAANEKLPVLYWLSGLTCNEQNFITKSGMQRYAAEHNIIVVAPDTSPRGSHVADADRYDLGQGAGFYLNATQAPWNEHYKMYDYIRNELPDLVMHHFPATAKKSISGHSMGGLGALVLALRNPDEYVSVSAFSPIVSPSQVPWGQQAFAAYLAENKDAWLDYDPVSLISQGQRVAEIMVDQGLSDDFYAEQLRTPNLEKICQEMNIKTLIRYHEGYDHSYYFVSSFIGEHIAYHANKLNMR | 7.46 h |  |  | 4.61 h | 2.58 h | 2.74 ± 0.72 h | 7.26 ± 1 h | 6.87 h |  |  |  | 10.9 h
4 | MELKATTLGKRLAQHPYDRAVILNAGIKVSGDRHEYLIPFNQLLAIHCKRGLVWGELEFVLPDEKVVRLHGTEWGETQRFYHHLDAHWRRWSGEMSEIASGVLRQQLDLIATRTGENKWLTREQTSGVQQQIRQALSALPLPVNRLEEFDNCREAWRKCQAWLKDIESARLQHNQAYTEAMLTEYADFFRQVESSPLNPAQARAVVNGEHSLLVLAGAGSGKTSVLVARAGWLLARGEASPEQILLLAFGRKAAEEMDERIRERLHTEDITARTFHALALHIIQQGSKKVPIVSKLENDTAARHELFIAEWRKQCSEKKAQAKGWRQWLTEEMQWSVPEGNFWDDEKLQRRLASRLDRWVSLMRMHGGAQAEMIASAPEEIRDLFSKRIKLMAPLLKAWKGALKAENAVDFSGLIHQAIVILEKGRFISPWKHILVDEFQDISPQRAALLAALRKQNSQTTLFAVGDDWQAIYRFSGAQMSLTTAFHENFGEGERCDLDTTYRFNSRIGEVANRFIQQNPGQLKKPLNSLTNGDKKAVTLLDESQLDALLDKLSGYAKPEERILILARYHHMRPASLEKAATRWPKLQIDFMTIHASKGQQADYVIIVGLQEGSDGFPAAARESIMEEALLPPVEDFPDAEERRLMYVALTRARHRVWALFNKENPSPFVEILKNLDVPVARKP | 6.73 ± 0.37 h | 5.42 ± 0.098 h | 4.93 ± 0.55 h | 5.31 ± 0.26 h | 4.17 ± 0.1 h | 2.66 ± 0.17 h | 5.06 ± 0.43 h | 8.95 ± 0.32 h | 4.45 ± 0.033 h | 7.69 ± 0.31 h | 4.69 ± 0.16 h | 9.53 ± 0.42 h
5 | MELLCPAGNLPALKAAIENGADAVYIGLKDDTNARHFAGLNFTEKKLQEAVSFVHQHRRKLHIAINTFAHPDGYARWQRAVDMAAQLGADALILADLAMLEYAAERYPHIERHVSVQASATNEEAINFYHRHFDVARVVLPRVLSIHQVKQLARVTPVPLEVFAFGSLCIMSEGRCYLSSYLTGESPNTIGACSPARFVRWQQTPQGLESRLNEVLIDRYQDGENAGYPTLCKGRYLVDGERYHALEEPTSLNTLELLPELMAANIASVKIEGRQRSPAYVSQVAKVWRQAIDRCKADPQNFVPQSAWMETLGSMSEGTQTTLGAYHRKWQ | 4.53 h |  |  |  |  |  |  |  |  |  |  | 
6 | MELLLLSNSTLPGKAWLEHALPLIAEQLQGRRSAVFIPFAGVTQTWDDYTAKTAAVLAPLGVSVTGIHSVVDPVAAIENAEIVIVGGGNTFQLLKQCRERGLLAPITDVVKRGALYIGWSAGANLACPTIRTTNDMPIVDPQGFDALNLFPLQINPHFTNALPEGHKGETREQRIRELLVVAPELTIIGLPEGNWITVSKGHATLGGPNTTYVFKAGEEAVPLEAGHRF [P0A7C6] | 3.28 h |  |  |  |  | 3.03 h | 4.93 ± 0.56 h | 9.36 h | 4.73 h | 5.8 h | 5.69 ± 0.077 h | 11.1 ± 0.86 h
7 | MELYLDTSDVVAVKALSRIFPLAGVTTNPSIIAAGKKPLDVVLPQLHEAMGGQGRLFAQVMATTAEGMVNDALKLRSIIADIVVKVPVTAEGLAAIKMLKAEGIPTLGTAVYGAAQGLLSALAGAEYVAPYVNRIDAQGGSGIQTVTDLHQLLKMHAPQAKVLAASFKTPRQALDCLLAGCESITLPLDVAQQMISYPAVDAAVAKFEQDWQGAFGRTSI | 4.96 ± 0.38 h | 4.345 ± 0.017 h | 4.474 ± 0.0021 h | 4.44 ± 0.26 h | 4.3899 ± 0.004 h | 2.703 ± 0.021 h | 5.36 h | 8.19 ± 0.81 h | 3.81 ± 0.38 h | 7.04 ± 2.2 h | 5.72 ± 0.61 h | 10 ± 0.64 h
